Test results from patent US20160355587A1.
Substitutions are numbered along the chain they refer to.

B1: CD166-16522.18-2001 (antibody, part only; not given: linkers and constant regions, V domains shown, not shown: small tags and cut ends)
VH: QITLKESGPTLVKPTQTLTLTCTFSGFSLSTYGMGVGWIRQPPGKALEWLANIWWSEDKHYSPSLKSRLTITKDTSKNQVVLTMTNMDPVDTATYYCVQIDYGNDYAFTYWGQGTLVTVSS
VL, part: LEGWCLHPACLWGAGISSGLLSGRSDNHDIVMTQSPLSLPVTPGEPASISCRSSKSLLHSNGITYLYWYLQKPGQSPQLLIYQMSNLASGVPDRFSGSGSGTDFTLKISRVEAEDVGVYYCAQNLELPYTFGQGTKLEIK
B2: CD166-16522.21-2001 (antibody, part only; not given: linkers and constant regions, V domains shown, not shown: small tags and cut ends)
VH: B1 VH
VL, part: CLHPLCISSGLLSGRSDNHDIVMTQSPLSLPVTPGEPASISCRSSKSLLHSNGITYLYWYLQKPGQSPQLLIYQMSNLASGVPDRFSGSGSGTDFTLKISRVEAEDVGVYYCAQNLELPYTFGQGTKLEIK
B3: CD166-16522.19-2001 (antibody, part only; not given: linkers and constant regions, V domains shown, not shown: small tags and cut ends)
VH: B1 VH
VL, part: B1 VL, part with A9L, L11A
B4: CD166-16522.20-2001 (antibody, part only; not given: linkers and constant regions, V domains shown, not shown: small tags and cut ends)
VH: B1 VH
VL, part: B1 VL, part with A9L, W12A

Molecular target: T1, human CD166 protein (human) (UniProt Q13740)
T1 sequence (looked up): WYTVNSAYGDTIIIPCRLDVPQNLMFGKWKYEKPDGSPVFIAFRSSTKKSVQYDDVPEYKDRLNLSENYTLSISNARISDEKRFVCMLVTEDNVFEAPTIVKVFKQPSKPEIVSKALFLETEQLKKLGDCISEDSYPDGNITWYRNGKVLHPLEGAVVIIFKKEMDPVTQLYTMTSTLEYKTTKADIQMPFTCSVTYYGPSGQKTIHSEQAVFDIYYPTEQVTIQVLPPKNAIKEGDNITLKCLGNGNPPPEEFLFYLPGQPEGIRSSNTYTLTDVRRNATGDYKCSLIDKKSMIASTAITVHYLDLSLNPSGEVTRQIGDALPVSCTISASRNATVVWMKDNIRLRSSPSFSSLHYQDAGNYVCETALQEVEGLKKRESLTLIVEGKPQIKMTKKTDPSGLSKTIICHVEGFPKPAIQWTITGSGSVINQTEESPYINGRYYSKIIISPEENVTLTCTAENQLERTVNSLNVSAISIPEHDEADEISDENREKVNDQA
Test: ELISA, human CD166 protein coated; apparent Kd

Binder | Kd [nM]
B1 | 57.7
B2 | 145
B3 | 49.2
B4 | 700

Molecular target: T1, human CD166 protein (human)
Test: ELISA; relative to parental CD166 M9 vk1/HcB

Binder | Fold Increase in Kd [fold]
B1 | 13
B2 | 33
B3 | 11
B4 | 158
